Patent US20180356429A1

Legend:
[1] = biological target: Recombinant human IL-13 (R&D Systems, MN, catalog no. 213-ILB/CF) (human) (UniProt P35225); assay: sandwich pair screen, negative (blank) signal, binder is detection Ab; capture Ab MILR1444A
[2] = biological target: Recombinant human IL-13 (R&D Systems, MN, catalog no. 213-ILB/CF) (human) (UniProt P35225); assay: sandwich pair screen, 100 pg/mL recombinant IL-13, binder is detection Ab; capture Ab 8C11
[3] = biological target: Recombinant human IL-13 (R&D Systems, MN, catalog no. 213-ILB/CF) (human) (UniProt P35225); assay: sandwich pair screen, negative (blank) signal, binder is detection Ab; capture Ab 8C11
[4] = biological target: Recombinant human IL-13 (R&D Systems, MN, catalog no. 213-ILB/CF) (human) (UniProt P35225); assay: sandwich pair screen, 100 pg/mL recombinant IL-13, binder is detection Ab; capture Ab 4D7
[5] = biological target: Recombinant human IL-13 (R&D Systems, MN, catalog no. 213-ILB/CF) (human) (UniProt P35225); assay: sandwich pair screen, 100 pg/mL recombinant IL-13, binder is detection Ab; capture Ab MILR1444A
[6] = biological target: Recombinant human IL-13 (R&D Systems, MN, catalog no. 213-ILB/CF) (human) (UniProt P35225); assay: sandwich pair screen, negative (blank) signal, binder is detection Ab; capture Ab 228B/C
[7] = biological target: Recombinant human IL-13 (R&D Systems, MN, catalog no. 213-ILB/CF) (human) (UniProt P35225); assay: sandwich pair screen, 100 pg/mL recombinant IL-13, binder is detection Ab; capture Ab 228B/C
[8] = biological target: Recombinant human IL-13 (R&D Systems, MN, catalog no. 213-ILB/CF) (human) (UniProt P35225); assay: sandwich pair screen, negative (blank) signal, binder is detection Ab; capture Ab 11H4
[9] = biological target: Recombinant human IL-13 (R&D Systems, MN, catalog no. 213-ILB/CF) (human) (UniProt P35225); assay: sandwich pair screen, 100 pg/mL recombinant IL-13, binder is detection Ab; capture Ab 11H4
[10] = biological target: Recombinant human IL-13 (R&D Systems, MN, catalog no. 213-ILB/CF) (human) (UniProt P35225); assay: sandwich pair screen, 100 pg/mL recombinant IL-13, binder is detection Ab; capture Ab 32116
[11] = biological target: Recombinant human IL-13 (R&D Systems, MN, catalog no. 213-ILB/CF) (human) (UniProt P35225); assay: sandwich pair screen, negative (blank) signal, binder is detection Ab; capture Ab 4D7
[12] = biological target: Recombinant human IL-13 (R&D Systems, MN, catalog no. 213-ILB/CF) (human) (UniProt P35225); assay: sandwich pair screen, negative (blank) signal, binder is detection Ab; capture Ab 14C9
[13] = biological target: Recombinant human IL-13 (R&D Systems, MN, catalog no. 213-ILB/CF) (human) (UniProt P35225); assay: sandwich pair screen, 100 pg/mL recombinant IL-13, binder is detection Ab; capture Ab 14C9
[14] = biological target: Recombinant human IL-13 (R&D Systems, MN, catalog no. 213-ILB/CF) (human) (UniProt P35225); assay: sandwich pair screen, negative (blank) signal, binder is detection Ab; capture Ab 32116

Recombinant human IL-13 (R&D Systems, MN, catalog no. 213-ILB/CF) (human), sequence (P35225 other isoform, or with tags, fused parts or gaps): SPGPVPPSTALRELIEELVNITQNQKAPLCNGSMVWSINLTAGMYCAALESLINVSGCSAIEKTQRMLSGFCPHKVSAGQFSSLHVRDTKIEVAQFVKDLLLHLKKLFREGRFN

MAB213 (R&D Systems, MN, Cat. No. MAB213) (antibody)
Assay Signal Neg (blank) [1]: 0.3
Assay Signal Pos [2]: 4.1
Assay Signal Neg (blank) [3]: 3.9
Assay Signal Pos [4]: 23.6
Assay Signal Pos [5]: 47.2
Assay Signal Neg (blank) [6]: 26.5
Assay Signal Pos [7]: 52.7
Assay Signal Neg (blank) [8]: 23.2
Assay Signal Pos [9]: 2310
Assay Signal Pos [10]: 18.2
Assay Signal Neg (blank) [11]: 21.7
Assay Signal Neg (blank) [12]: 30
Assay Signal Pos [13]: 33.2
Assay Signal Neg (blank) [14]: 17.2
